Measurements from paper doi:10.1101/2024.11.12.623303 (bioRxiv, 2024).

Molecular target: T1, recombinant CD45RO-Fc protein (Catalog # 10642-CD, R&D systems) (UniProt P08575-4 26-416)
T1 sequence (looked up): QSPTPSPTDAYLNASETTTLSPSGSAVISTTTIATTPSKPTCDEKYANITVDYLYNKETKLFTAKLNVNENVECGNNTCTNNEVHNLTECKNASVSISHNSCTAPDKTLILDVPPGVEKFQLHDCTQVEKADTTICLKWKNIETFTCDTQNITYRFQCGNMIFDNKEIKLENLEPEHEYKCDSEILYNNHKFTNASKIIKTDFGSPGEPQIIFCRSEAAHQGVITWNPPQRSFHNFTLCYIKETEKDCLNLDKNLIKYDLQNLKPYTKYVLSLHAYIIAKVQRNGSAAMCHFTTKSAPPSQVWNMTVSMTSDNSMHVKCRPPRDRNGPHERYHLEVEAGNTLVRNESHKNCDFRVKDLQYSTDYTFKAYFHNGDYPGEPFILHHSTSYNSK
Test: MST

B1: BTN2A2-His tag protein (without Fc tag) (domain or fragment, human, UniProt Q8WVV5 33-237, looked up)
chain: QFTVVGPANPILAMVGENTTLRCHLSPEKNAEDMEVRWFRSQFSPAVFVYKGGRERTEEQMEEYRGRITFVSKDINRGSVALVIHNVTAQENGIYRCYFQEGRSYDEAILRLVVAGLGSKPLIEIKAQEDGSIWLECISGGWYPEPLTVWRDPYGEVVPALKEVSIADADGLFMVTTAVIIRDKYVRNVSCSVNNTLLGQEKETV
modifications: fluorescently labeled by covalent labeling (Monolith protein labeling kit RED-NHS 2nd generation, amine reactive)
Kd: 63.5 nM
